# Measured values: patent publication US20140065111A1 (published 2014)
# T1: human gp100 peptide on H-2Db (mouse)
# T1 peptide: KVPRNQDWL
# Target: T1, human gp100 peptide on H-2Db
# Assay: multimer staining
# Description: Monomers of H2D^b mouse MHC class I molecules loaded with the human gp100 peptide KVPRNQDWL were ordered from the NIH tetramer facility. Monomers were conjugated to APC-Streptavidin (eBiosience) by incubation on ice. Cells were stained with tetramers for 1H in concentrations of 0.178 μg tetramers for 1 million cells in total volume of 50 μl of PBS supplemented with 0.5% BSA and 0.1% of Na-Azide.
# After testing the expression and presence of the CD3-TCR complex on the cell surface it is essential to determine the capability of the TCR to bind the MHC-class I molecule presenting the gp100 peptide. In order to test binding capability of the TCR a tetramer staining assay was performed. The tetramer staining assay is designed for testing TCR-MHC binding and was previously described (Ogg and McMichael, 1998). Briefly, the tetramer is a complex of four monomers. Each monomer formed from a mouse MHC-class I molecule, H-2D^b, presenting the human gp100 peptide KVPRNQDWL. The H-2D^b molecule is conjugated to a biotin molecule. The tetramers are assembled by linking four biotin conjugated monomers to one molecule of APC-conjugated Streptavidin. The 293TREx-CD3-Pmel-TCR cells were stained with the tetramers and analyzed by FACS.
binder,measurement,value
"Pmel-TCR (TCR, V domains shown) Valpha: QQKVQQSPESLTVSEGAMASLNCTFSDRSSDNFRWYRQHSGKGLEVLVSIFSDGEKEEGSFTAHLNRASLHVFLHIREPQPSDSALYLCAVNTGNYKYVFGAGTRLKVIA Vbeta: EAGVTQSPRYAVLQEGQAVSFWCDPISGHDTLYWYQQPRDQGPQLLVYFRDEAVIDNSQLPSDRFSAVRPKGTNSTLKIQSAKQGDTATYLCASSFHRDYNSPLYFAAGTRLTVT",binding result,recognises
